From paper PMC11024467, “A novel dual mechanism-of-action bispecific PD-1-IL-2v armed by a “βγ-only” interleukin-2 variant” (Frontiers in Immunology, 2024)

Legend:
IL-2Rβγ complex [1] = molecular target: T1, IL-2Rβγ complex (UniProt P14784 27-551; P31785 23-369); assay: SPR; Biacore, IL-2 receptor proteins immobilised on a CM5 chip; wild-type IL-2 or variant 012 flowed over at stepwise concentrations for 120 s, then blank solution; 1:1 binding fit (steady state affinity for 001 on IL-2Rα); conditions: both partners purified
IL-2Rβγ complex [2] = molecular target: T1, IL-2Rβγ complex; assay: cell-based or functional assay
IL-2Rαβγ complex = IL-2Rαβγ complex (UniProt P01589 22-272; P14784 27-551; P31785 23-369); assay: SPR; Biacore, IL-2 receptor proteins immobilised on a CM5 chip; wild-type IL-2 or variant 012 flowed over at stepwise concentrations for 120 s, then blank solution; 1:1 binding fit (steady state affinity for 001 on IL-2Rα); conditions: both partners purified
Chain of IL-2Rαβγ complex (P01589 22-272, chain 1 of 3): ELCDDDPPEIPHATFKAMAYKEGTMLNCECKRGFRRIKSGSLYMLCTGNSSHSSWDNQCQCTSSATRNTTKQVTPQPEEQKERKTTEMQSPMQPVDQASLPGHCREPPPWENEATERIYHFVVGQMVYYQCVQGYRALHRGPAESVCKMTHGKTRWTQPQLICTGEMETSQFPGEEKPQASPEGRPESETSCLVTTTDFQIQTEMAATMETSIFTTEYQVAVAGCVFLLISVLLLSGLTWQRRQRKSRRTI
Chain of IL-2Rαβγ complex (P14784 27-551, chain 2 of 3): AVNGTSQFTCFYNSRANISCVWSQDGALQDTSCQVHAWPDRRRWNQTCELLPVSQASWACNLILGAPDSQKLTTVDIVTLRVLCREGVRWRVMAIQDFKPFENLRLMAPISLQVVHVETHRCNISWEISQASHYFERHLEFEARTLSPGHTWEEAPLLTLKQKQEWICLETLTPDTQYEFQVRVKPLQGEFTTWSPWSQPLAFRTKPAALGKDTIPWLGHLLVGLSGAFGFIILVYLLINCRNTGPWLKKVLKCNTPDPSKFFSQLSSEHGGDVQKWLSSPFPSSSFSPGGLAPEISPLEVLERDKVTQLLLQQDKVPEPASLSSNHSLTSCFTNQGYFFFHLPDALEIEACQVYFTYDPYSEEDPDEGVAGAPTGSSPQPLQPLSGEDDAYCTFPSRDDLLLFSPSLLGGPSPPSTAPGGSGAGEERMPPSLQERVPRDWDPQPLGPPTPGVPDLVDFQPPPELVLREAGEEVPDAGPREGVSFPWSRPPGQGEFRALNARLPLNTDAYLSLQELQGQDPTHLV
Chain of IL-2Rαβγ complex (P31785 23-369, chain 3 of 3): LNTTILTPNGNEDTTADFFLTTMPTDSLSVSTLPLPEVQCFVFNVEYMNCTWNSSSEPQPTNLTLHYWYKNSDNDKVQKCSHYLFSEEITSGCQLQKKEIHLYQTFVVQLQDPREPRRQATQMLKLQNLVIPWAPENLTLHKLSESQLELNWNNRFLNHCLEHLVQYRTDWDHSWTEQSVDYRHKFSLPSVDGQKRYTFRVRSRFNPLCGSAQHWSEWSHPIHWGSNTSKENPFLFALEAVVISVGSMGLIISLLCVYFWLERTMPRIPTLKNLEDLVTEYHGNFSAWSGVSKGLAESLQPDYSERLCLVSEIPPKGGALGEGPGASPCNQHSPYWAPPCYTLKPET

T1 sequence (P14784 27-551, chain 1 of 2): as the sequence (P14784 27-551, chain 2 of 3) above
T1 sequence (P31785 23-369, chain 2 of 2): as the sequence (P31785 23-369, chain 3 of 3) above

B1: IL-2 variant 012 (ligand)
chain: PTSSSTKKTQLQLEHLLLDLQMILNGINNYKNPLRPRDLISNINVIVLELKGSETTELKHLQSLEEELKDLEEVLNLAQSKNFHTIVEFLNRWITFSQSIISTLT
notes: also called βγ-only IL-2v
Kd (IL-2Rβγ complex [1]): 0.467 nM
koff (IL-2Rβγ complex [1]): 0.00106 s⁻¹
EC50 of STAT5 activation (pSTAT5) in CD8 T cells of human PBMC (Table S4) (IL-2Rβγ complex [2]): 18.6 nM
EC50 of STAT5 activation (pSTAT5) in NK cells of human PBMC (Table S4) (IL-2Rβγ complex [2]): 5.11 nM
Kd (IL-2Rαβγ complex): 0.575 nM
koff (IL-2Rαβγ complex): 0.000732 s⁻¹
